Experiments:
HeLa Kyoto [1] = assay: solubility in G1/S (NP-40 vs SDS abundance) (log2 ratio); higher = more soluble; conditions: cell cycle stage: G1/S
HeLa Kyoto [2] = assay: melting temperature (median over replicates), in situ; higher = more thermally stable
HeLa Kyoto [3] = assay: solubility change mitosis vs G1/S (difference of NP-40 vs SDS log2 ratios) (log2 ratio difference); higher = more soluble in mitosis
HeLa Kyoto [4] = assay: thermal stability score vs G1/S (z-score of summed log2 fold changes over temperatures); higher = more thermally stable than in G1/S
[5] = cell cycle stage: early G1 (4.5 h after nocodazole release)
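Wherever melting temperature (median over replicates), in situ is given: HeLa Kyoto cells synchronized by double thymidine or nocodazole block, proteins quantified by TMT10plex mass spectrometry, three independent biological replicates.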
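Wherever solubility change mitosis vs G1/S (difference of NP-40 vs SDS log2 ratios) is given: synchronized HeLa Kyoto cells (double thymidine block for G1/S, nocodazole release for mitosis), protein amounts in NP-40 versus SDS lysates quantified by mass spectrometry, three biological replicates.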
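Wherever solubility in G1/S (NP-40 vs SDS abundance) is given: HeLa Kyoto cells arrested at G1/S by double thymidine block, proteins quantified by TMT10plex mass spectrometry in mild NP-40 versus SDS extracts, three biological replicates.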
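Wherever thermal stability score vs G1/S (z-score of summed log2 fold changes over temperatures) is given: synchronized HeLa Kyoto cells, proteins quantified by TMT10plex mass spectrometry, three biological replicates, mitosis taken 0.5 h after nocodazole release, G1/S directly after double thymidine block.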

Row | Sequence | solubility in G1/S (log2) (HeLa Kyoto [1]) | melting temperature (HeLa Kyoto [2]; cell cycle stage: G1/S) | melting temperature (HeLa Kyoto [2]; cell cycle stage: mitosis) | solubility change mitosis (log2) (HeLa Kyoto [3]) | thermal stability score (HeLa Kyoto [4]; [5]) | thermal stability score (HeLa Kyoto [4]; cell cycle stage: mitosis)
1 | MKLLLLHPAFQSCLLLTLLGLWRTTPEAHASSLGAPAISAASFLQDLIHRYGEGDSLTLQQLKALLNHLDVGVGRGNVTQHVQGHRNLSTCFSSGDLFTAHNFSEQSRIGSSELQEFCPTILQQLDSRACTSENQENEENEQTEEGRPSAVEVWGYGLLCVTVISLCSLLGASVVPFMKKTFYKRLLLYFIALAIGTLYSNALFQLIPEAFGFNPLEDYYVSKSAVVFGGFYLFFFTEKILKILLKQKNEHHHGHSHYASESLPSKKDQEEGVMEKLQNGDLDHMIPQHCSSELDGKAPMVDEKVIVGSLSVQDLQASQSACYWLKGVRYSDIGTLAWMITLSDGLHNFIDGLAIGASFTVSVFQGISTSVAILCEEFPHELGDFVILLNAGMSIQQALFFNFLSACCCYLGLAFGILAGSHFSANWIFALAGGMFLYISLADMFPEMNEVCQEDERKGSILIPFIIQNLGLLTGFTIMVVLTMYSGQIQIG [SLC39A14] | -0.0657 | 55.3 °C | 59 °C | -0.241 | 1.32 | 2.81
2 | MVDPVGFAEAWKAQFPDSEPPRMELRSVGDIEQELERCKASIRRLEQEVNQERFRMIYLQTLLAKEKKSYDRQRWGFRRAAQAPDGASEPRASASRPQPAPADGADPPPAEEPEARPDGEGSPGKARPGTARRPGAAASGERDDRGPPASVAALRSNFERIRKGHGQPGADAEKPFYVNVEFHHERGLVKVNDKEVSDRISSLGSQAMQMERKKSQHGAGSSVGDASRPPYRGRSSESSCGVDGDYEDAELNPRFLKDNLIDANGGSRPPWPPLEYQPYQSIYVGGMMEGEGKGPLLRSQSTSEQEKRLTWPRRSYSPRSFEDCGGGYTPDCSSNENLTSSEEDFSSGQSSRVSPSPTTYRMFRDKSRSPSQNSQQSFDSSSPPTPQCHKRHRHCPVVVSEATIVGVRKTGQIWPNDGEGAFHGDADGSFGTPPGYGCAADRAEEQRRHQDGLPYIDDSPSSSPHLSSKGRGSRDALVSGALESTKASELDLEKGLEMRKWVLSGILASEETYLSHLEALLLPMKPLKAAATTSQPVLTSQQIETIFFKVPELYEIHKEFYDGLFPRVQQWSHQQRVGDLFQKLASQLGVYRAFVDNYGVAMEMAEKCCQANAQFAEISENLRARSNKDAKDPTTKNSLETLLYKPVDRVTRSTLVLHDLLKHTPASHPDHPLLQDALRISQNFLSSINEEITPRRQSMTVKKGEHRQLLKDSFMVELVEGARKLRHVFLFTDLLLCTKLKKQSGGKTQQYDCKWYIPLTDLSFQMVDELEAVPNIPLVPDEELDALKIKISQIKNDIQREKRANKGSKATERLKKKLSEQESLLLLMSPSMAFRVHSRNGKSYTFLISSDYERAEWRENIREQQKKCFRSFSLTSVELQMLTNSCVKLQTVHSIPLTINKEDDESPGLYGFLNVIVHSATGFKQSSNLYCTLEVDSFGYFVNKAKTRVYRDTAEPNWNEEFEIELEGSQTLRILCYEKCYNKTKIPKEDGESTDRLMGKGQVQLDPQALQDRDWQRTVIAMNGIEVKLSVKFNSREFSLKRMPSRKQTGVFGVKIAVVTKRERSKVPYIVRQCVEEIERRGMEEVGIYRVSGVATDIQALKAAFDVNNKDVSVMMSEMDVNAIAGTLKLYFRELPEPLFTDEFYPNFAEGIALSDPVAKESCMLNLLLSLPEANLLTFLFLLDHLKRVAEKEAVNKMSLHNLATVFGPTLLRPSEKESKLPANPSQPITMTDSWSLEVMSQVQVLLYFLQLEAIPAPDSKRQSILFSTEV [BCR] | -0.109 | 49 °C | 49.2 °C | -0.114 | 0.827 | 1.59
3 | MTMPVNGAHKDADLWSSHDKMLAQPLKDSDVEVYNIIKKESNRQRVGLELIASENFASRAVLEALGSCLNNKYSEGYPGQRYYGGTEFIDELETLCQKRALQAYKLDPQCWGVNVQPYSGSPANFAVYTALVEPHGRIMGLDLPDGGHLTHGFMTDKKKISATSIFFESMPYKVNPDTGYINYDQLEENARLFHPKLIIAGTSCYSRNLEYARLRKIADENGAYLMADMAHISGLVAAGVVPSPFEHCHVVTTTTHKTLRGCRAGMIFYRKGVKSVDPKTGKEILYNLESLINSAVFPGLQGGPHNHAIAGVAVALKQAMTLEFKVYQHQVVANCRALSEALTELGYKIVTGGSDNHLILVDLRSKGTDGGRAEKVLEACSIACNKNTCPGDRSALRPSGLRLGTPALTSRGLLEKDFQKVAHFIHRGIELTLQIQSDTGVRATLKEFKERLAGDKYQAAVQALREEVESFASLFPLPGLPDF [SHMT1] | 0.366 | 58.2 °C | 58.2 °C | -0.0876 | -2.14 | -2.12
4 | MAAEREPPPLGDGKPTDFEDLEDGEDLFTSTVSTLESSPSSPEPASLPAEDISANSNGPKPTEVVLDDDREDLFAEATEEVSLDSPEREPILSSEPSPAVTPVTPTTLIAPRIESKSMSAPVIFDRSREEIEEEANGDIFDIEIGVSDPEKVGDGMNAYMAYRVTTKTSLSMFSKSEFSVKRRFSDFLGLHSKLASKYLHVGYIVPPAPEKSIVGMTKVKVGKEDSSSTEFVEKRRAALERYLQRTVKHPTLLQDPDLRQFLESSELPRAVNTQALSGAGILRMVNKAADAVNKMTIKMNESDAWFEEKQQQFENLDQQLRKLHVSVEALVCHRKELSANTAAFAKSAAMLGNSEDHTALSRALSQLAEVEEKIDQLHQEQAFADFYMFSELLSDYIRLIAAVKGVFDHRMKCWQKWEDAQITLLKKREAEAKMMVANKPDKIQQAKNEIREWEAKVQQGERDFEQISKTIRKEVGRFEKERVKDFKTVIIKYLESLVQTQQQLIKYWEAFLPEAKAIA [SNX2] | 0.143 | 51.4 °C | 51.2 °C | -0.226 | 0.424 | -0.352
5 | MAGKKNVLSSLAVYAEDSEPESDGEAGIEAVGSAAEEKGGLVSDAYGEDDFSRLGGDEDGYEEEEDENSRQSEDDDSETEKPEADDPKDNTEAEKRDPQELVASFSERVRNMSPDEIKIPPEPPGRCSNHLQDKIQKLYERKIKEGMDMNYIIQRKKEFRNPSIYEKLIQFCAIDELGTNYPKDMFDPHGWSEDSYYEALAKAQKIEMDKLEKAKKERTKIEFVTGTKKGTTTNATSTTTTTASTAVADAQKRKSKWDSAIPVTTIAQPTILTTTATLPAVVTVTTSASGSKTTVISAVGTIVKKAKQ [SAP30BP] | 0.144 | 52.6 °C | 53.6 °C | -0.0287 | 0.846 | 1.18
6 | MTERFDCHHCNESLFGKKYILREESPYCVVCFETLFANTCEECGKPIGCDCKDLSYKDRHWHEACFHCSQCRNSLVDKPFAAKEDQLLCTDCYSNEYSSKCQECKKTIMPGTRKMEYKGSSWHETCFICHRCQQPIGTKSFIPKDNQNFCVPCYEKQHAMQCVQCKKPITTGGVTYREQPWHKECFVCTACRKQLSGQRFTARDDFAYCLNCFCDLYAKKCAGCTNPISGLGGTKYISFEERQWHNDCFNCKKCSLSLVGRGFLTERDDILCPDCGKDI [FHL2] | -0.304 | 52 °C | 51.9 °C | -0.0906 | -1.09 | -1.97
7 | MRKFAYCKVVLATSLIWVLLDMFLLLYFSECNKCDEKKERGLPAGDVLEPVQKPHEGPGEMGKPVVIPKEDQEKMKEMFKINQFNLMASEMIALNRSLPDVRLEGCKTKVYPDNLPTTSVVIVFHNEAWSTLLRTVHSVINRSPRHMIEEIVLVDDASERDFLKRPLESYVKKLKVPVHVIRMEQRSGLIRARLKGAAVSKGQVITFLDAHCECTVGWLEPLLARIKHDRRTVVCPIIDVISDDTFEYMAGSDMTYGGFNWKLNFRWYPVPQREMDRRKGDRTLPVRTPTMAGGLFSIDRDYFQEIGTYDAGMDIWGGENLEISFRIWQCGGTLEIVTCSHVGHVFRKATPYTFPGGTGQIINKNNRRLAEVWMDEFKNFFYIISPGVTKVDYGDISSRVGLRHKLQCKPFSWYLENIYPDSQIPRHYFSLGEIRNVETNQCLDNMARKENEKVGIFNCHGMGGNQVFSYTANKEIRTDDLCLDVSKLNGPVTMLKCHHLKGNQLWEYDPVKLTLQHVNSNQCLDKATEEDSQVPSIRDCNGSRSQQWLLRNVTLPEIF [GALNT1] | -0.204 | 53.1 °C | 52 °C | -0.0904 | 3.31 | 5

Reference: the supplement of paper PMC5998384
